This sample holds only a part of the variants without activity.
B1: TPR 5TU (parent)
chain: GGAUCUUCUCGAUCUAACAAAAAAGACAAAUCUGCCACAAAGCUUGAGAGCAUCUUCGGAUGCAGAGGCGGCAGCCUUCGGUGGCGCGAUAGCGCCAACGUUCUCAACUAUGACACGCAAAACGCGUGCUCCGUUGAAUGGAGUUUAUCAUG

Variants of: B1
Assay: polymerase ribozyme fitness, log enrichment relative to wild type (log ratio); higher = more active; in vitro selection for triplet polymerase activity
Procedure, shortened: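 Mutant libraries were PCR-built and transcribed for each subunit of a heterodimeric triplet polymerase ribozyme and selected for one round in triplicate at −7 °C, frozen, before gel excision of extended constructs and streptavidin-bead capture. Input and output libraries were Illumina-sequenced, keeping genotypes with ≥10 input reads and ≥1 read per output. Fitness is a logarithmic ratio of genotype to wild-type enrichment, in base 2, using inverse-variance-weighted replicate averages.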

Variant	polymerase ribozyme fitness (log ratio)
A47C G83A C99U A120U	-3.03
A47G G50C U82G	≤ -4.2
A47C C95U C116A	-0.555
A47C A66C G83C U104C G126C U130C C132G A138C	≤ -4.2
A47C G94A	-2.54
A47C G84A	-0.485
A47U A49G G141A U145A	≤ -4.2
A47C C85A C96U A97U	≤ -4.2
A47C C93A A106U U109G	≤ -4.2
A47G G50A C85U C99A G124C U127G	≤ -4.2
A47G C123G U151C	-4.15
A47G U56A U90C G92U U139C	≤ -4.2
A47G C93G U144A	-2.58
G46U G83U	-2.29
G46U G71C C95U A97U A115C G136U	≤ -4.2
A47G G50U G94U G141C	-2.22
A47C G59A G84U G94U G124A	-3.56
A47U C85A U139G	-1.24
A47C A60U G80U C93U	≤ -4.2
A47C C54U U55A U101C	0.0498
A47C A122U	-1.45
A47C G62A G70A U82A C85U G86A G152C	≤ -4.2
A47U A89G C116U G133U A138C	-4.12
A47G G140A	-3.51

Variant	polymerase ribozyme fitness (log ratio)
A47G A52C A97U	-1.2
A47C C93U	-1.69
A47C G92U C105U C131G	≤ -4.2
A47U C51U A52C U53G U61A A64U C76U G83U U146C	≤ -4.2
A47C C57A G84U A89C	-1.5
A47C U134G G136A	-0.632
A47U A52U C93A C125G U135C	≤ -4.2
A47C A89G C118A G133U	≤ -4.2
A47C G58C A64U U104C A107G	≤ -4.2
A47G U56A U134G	-2.17
A47G C63G G92U C93U	-1.34
A47G U61A	-1.41
A47U C57A	0.807
A47G U90A C95A A98G A138U A147C	≤ -4.2
A47C G83C G112C	≤ -4.2
A47C C95U	0.141
A47U A60C C125U	-2.64
A47C A60G C85A	-2.83
A47G C96U G124C	-1.06
A47C A52G G68C A91C	≤ -4.2
A47C U55A A60G	-0.228
A47U C96A A97G A122C	-1.28
A47G C99U	0.0144
A47C A52G U77G G94U C99U	≤ -4.2

Variant	polymerase ribozyme fitness (log ratio)
A47G G84U C149U	-3.35
A47C C57A G94A U144G	1.12
A47C C95U C96U C118U C131U	-1.83
A47G G58C G65A G141U	-1.24
A47U C96G C116U	-0.28
A47G C63G G74C A120G	≤ -4.2
A47C G59A	0.309
A47C G48A G124U	-3.59
A47C A49G	-0.809
A47C G62U C99G G143U	≤ -4.2
A47C G59C G86A	≤ -4.2
A47C C63U C79A G80A G86C U102C	≤ -4.2
A47C G83U	-1.01
A47C G50A U102C U146A	-2.55
A47C G50C	-4.1
A47G G86U G88C U109G	≤ -4.2
A47U C76U	-0.942
A47C G50C U53A A89G A106U A120C G136A	≤ -4.2
G46U U56A	-0.107
A47G G81C G92C C95A A142G	-2.95
A47G U55G	0.325
G46U G59C C85A A115U	-4.01
A47G G92C C114U	-2.53
A47C U82A	-0.366

Variant	polymerase ribozyme fitness (log ratio)
A47C U78A C131U U145A	≤ -4.2
A47C C69U G80C	≤ -4.2
A47C G59A C72U G81C A89G G128C U134C	≤ -4.2
A47U C54U C93U	-2.08
A47C U127C	-1.6
A47C C57A G84C G86U U146C C149U	≤ -4.2
A47G A52U G68U C79A C93U C99A G141C A142G G143U	≤ -4.2
A47C C85A C118U	-0.946
A47G U55A A91G	-2.78
A47C U102G A115U A142G U148A	≤ -4.2
A47G U53A	-0.375
A47G G84U A106G	-2.24
A47C A49C U144G	-4
A47C G86A C149U	-1.64
A47C C129G	-4.19
A47G C75G A107U U135A U148C	≤ -4.2
A47G C114U	-2.4
A47G A115C	-0.724
A47C A91C G112C G133C C149U	≤ -4.2
G46U G83U A91U A106U U148C	≤ -4.2
A47C C87U	-0.109
A47C U55G	0.183
A47G A49C A52G G81U G83C U134A	≤ -4.2
A47G G84A G128C	-3.37

Variant	polymerase ribozyme fitness (log ratio)
A47C U61A G140U U145G	≤ -4.2
A47C C85G U134G	-4.19
A47C C85U	-1.58
A47C C54U G84A U109G	-1.84
A47C G48C G74C U78G G143U	≤ -4.2
A47C C54U G83U A142G	-2.18
A47C G50U G58U A91G A97U U102A	≤ -4.2
A47G C87U	0.257
A47G U53A C57A G84U C99U U134G G141C	≤ -4.2
A47U A64G G67A	≤ -4.2
A47U A73U A147C	-2.13
A47G A52G G58A A60G G62C U78G G88C	≤ -4.2
A47C U56A A60G C85U C96U A150U	-0.791
A47C C96U A107U	-3.57
A47C G48U C76G C96U A113C	≤ -4.2
A47U C54A	-1.93
A47C A73U C118A	-3.14
A47C G74U A107G A122U	≤ -4.2
A47C A49C G65A G84A A113G G141A	≤ -4.2
A47G G59C G92U C99A C118G	-3.37
A47G U102C A142C C149U	≤ -4.2
G46U G84C C87G A150G	≤ -4.2
A47G A52G U56A C87G	≤ -4.2
A47G G83C U134A G140U	-4.17

Variant	polymerase ribozyme fitness (log ratio)
A47C C57U G67C C69A A91U C149U	≤ -4.2
A47U A60C C103G A107G	≤ -4.2
A47G A49U C103G	≤ -4.2
A47G U78A G81U G86C U127G A138C	≤ -4.2
G46U G68C G94C	≤ -4.2
A47G C87U C99U	-1.24
A47G C123U C129G	-3.23
G46U U82C C95U	-0.628
A47C A60G C93A C95A C96U U139G	≤ -4.2
A47C G65C G88A C103A	≤ -4.2
A47C A66U C103G	≤ -4.2
A47G A91G A97G G112C	≤ -4.2
A47U A97G A98G C116U A150U	0.886
A47U C51A G58A G80A G83A C103U	≤ -4.2
A47G G84U U135A	-2.45
A47G U55A C63G G84C	≤ -4.2
A47C G141A	-1.5
A47U C69U C93A A107C A115C	≤ -4.2
A47U C75U	-1.41
A47C C57A C93U	-1.3
G46U G88U	≤ -4.2
A47G A52G C87U A98G	-1.52
A47C A49G G83A G140A	≤ -4.2
A47G G58C G112C	-3.97

Variant	polymerase ribozyme fitness (log ratio)
A47C G126A	0.0505
A47C U53A G81A U104G	-1.12
A47G G74A U101G A121C U145C	≤ -4.2
A47C U77G U130G	≤ -4.2
A47G C51U C87U	-0.414
A47C C51U G58C G70A C96U A106U U151C	≤ -4.2
A47G A49U G50C C57U A107C A150C	≤ -4.2
A47G A52C A73G C76G C87G A98G	≤ -4.2
A47G C87A G126A	≤ -4.2
A47U C54U C114U	-2.94
A47G A91G A97G A98C U134G U139A	≤ -4.2
A47G C54G	-0.785
A47C U53C C57A C72G A73C U78C C79U C96G C129A A150G	≤ -4.2
A47C A73G	-0.266
A47C A119G	0.0948
A47U C85U	-0.698
A47C C93A A107G G140U	≤ -4.2
G46U G59C C96G	-3.41
A47U A121U A147C C149U	-3.04
A47C G81C C99A U134G	-4.06
A47C U56A C87A C93G A121U C132G G143A U144C	≤ -4.2
A47G G84U	-1.59
A47G G84C	-2.56

Source: the RNAGym collection of RNA variant scans (doi:10.1073/pnas.2313332121)
